Results published in US20220280611A1, “SOLID COMPOSITION COMPRISING A PYY COMPOUND AND A SALT OF N-(8-(2- HYDROXYBENZOYL)AMINO)CAPRYLIC ACID” (Novo Nordisk A/S, priority 2019, published 2022).
Starred links: 1 amine or outer side, 2 acyl side, 3 side chain; linkers in the order of their positions; H or OH if unused. Non-standard residues stand in square brackets, D forms with d. Groups on a side chain read outwards from the residue. No end group written: not given here. *: point of attachment. Decanoyl(10-(4-HOOC-PhO)) = O=C(O)c1ccc(OCCCCCCCCCC(=O)*)cc1; γGlu = O=C(O)[C@H](CCC(=O)[*:2])N[*:1]; AEEA = NCCOCCOCC(=O)O; Aib = CC(C)(N)C(=O)O

Assays:
[1] = Assay IV: Pharmacokinetic studies in Beagle dogs (oral exposure); assay type: in vivo; conditions: peroral
Experimental: Pharmacokinetic (PK) studies in Beagle dogs are conducted to determine the exposure of the PYY compound after peroral administration of different dosage forms.
For the pharmacokinetic studies male Beagle dogs are used, 1 to 5 years of age and weighing approximately 10-12 kg at the start of the studies. The dogs are group housed in pens (12 hours light: 12 hours dark), and fed individually and restrictedly once daily with Royal Canin Medium Adult dog (Royal Canin Products, China Branch, or Brogaarden A/S, Denmark). Exercise and group social are permitted daily, whenever possible. The dogs are used for repeated pharmacokinetic studies with a suitable wash-out period between successive dosings. An appropriate acclimatisation period is given prior to initiation of the first pharmacokinetic study. All handling, dosing and blood sampling of the animals are performed by trained and skilled staff. Before the studies the dogs are fasted overnight and from 0 to 4 h after dosing. Besides, the dogs are restricted to water 1 hour before dosing until 4 hours after dosing, but otherwise have ad libitum access to water during the whole period.
The tablets comprising the PYY compound are administered in the following manner: 10 min prior to tablet administration the dogs are dosed subcutaneously with approximately 3 nmol/kg of SEQ ID NO: 34). The PYY tablets are placed in the back of the mouth of the dog to prevent chewing. The mouth is then closed and tap water is given by a syringe or gavage to facilitate swallowing of the tablet.
Blood is sampled at predefined time points for up till 10 hr post dosing to adequately cover the full plasma concentration-time absorption profile of the PYY compound.
For each blood sampling time point approximately 0.8 mL of whole blood is collected in a 1.5 mL EDTA coated tube, and the tube is gently turned to allowing mixing of the sample with the EDTA. Blood samples (for example 0.8 mL) are collected in EDTA buffer (8 mM) and then centrifuged at 4° C. and 2000 G for 10 minutes. Plasma is pipetted into Micronic tubes on dry ice and kept at −20° C. until analysis. […]
PYY compound was assayed in dog plasma by plasma protein precipitation and turboflow liquid chromatography tandem mass spectrometry (TF-LC-MS/MS). […] The mixture was analysed by TF-LC-MS/MS using a Cyclone turboflow column (0.5×50 mm, ThermoFisher Scientific) and an Aeris Peptide 3.6 um XB-C18 analytical column (50×2.1 mm, Phenomenex) or a Poroshell SB-C18 2.7 um analytical column (50×2.1 mm, Agilent). […] The deviation between nominal and calculated concentration in the calibrators and quality control samples was below 20%. […]

[2] = in words; PCT/EP2019/052487; cited from earlier work
[3] = Test 3 tablet, SNAC amount 300 mg
[4] = Test 4 tablet, SNAC amount 100 mg

Substance: N{alpha-4}-(3-Methylbutanoyl)-N{Epsilon-7}-6-[[(4S)-4-carboxy-4-(17-carboxy-heptadecanoylamino)butanoyl]amino]hexanoyl-[Arg4,Lys7,Pro9,Gln18,Tyr28,Trp30,Leu31]hPYY(4-36) [Compound 4]
- Dose corrected AUC 0-30 min [1, 3]: 2.24 arbitrary unit
- Dose corrected exposure t = 30 min [1, 3]: 0.138 kg/L

Substance: N-epsilon27-[2-[2-[2-[[2-[2-[2-[[(4S)-4-carboxy-4-[10-(4-carboxyphenoxy)decanoylamino]butanoyl]amino]ethoxy]ethoxy]acetyl]amino]ethoxy]ethoxy]-acetyl], N-epsilon36-[2-[2-[2-[[2-[2-[2-[[(4S)-4-carboxy-4-[10-(4-carboxyphenoxy)decanoylamino]-butanoyl]amino]ethoxy]ethoxy]acetyl]amino]ethoxy]ethoxy]acetyl]-[Aib8,Glu22,Arg26,Lys27, Glu30,Arg34,Lys36]-GLP-1-(7-37)-peptidyl-Glu-Gly (H[Aib]EGTFTSDVSSYLEEQAARK([AEEA-AEEA-γGlu-Decanoyl(10-(4-HOOC-PhO))])FIEWLVRGK([AEEA-AEEA-γGlu-Decanoyl(10-(4-HOOC-PhO))])GEG) [GLP-1 agonist A]
- Oral availability when formulated in a SNAC formulation [2]: orally available

Substance: N{alpha-4}-(3-Methylbutanoyl)-N{Epsilon-7}-6-[[(4S)-4-carboxy-4-(17-carboxy-heptadecanoylamino)butanoyl]amino]hexanoyl-[Arg4,Lys7,Gln18,Ile22,Tyr28, Trp30,Leu31]hPYY(4-36) [Compound 32]
- Dose corrected AUC 0-30 min [1, 4]: 5.05 arbitrary unit
- Dose corrected exposure t = 30 min [1, 4]: 0.268 kg/L

Substance: N-epsilon26-[2-(2-{2-[2-(2-{2-[(S)-4-carboxy-4-(17-carboxyheptadecanoylamino) butyrylamino]ethoxy}ethoxy)acetylamino]ethoxy}ethoxy)acetyl][Aib8,Arg34]GLP-1(7-37) [Semaglutide]
- Oral availability when formulated in a SNAC formulation [2]: orally available
